Experimental data taken from US20240209367.

Biological target: C3b

B1: Complement Factor I (FI) (protein)
chain: KVTYTSQEDLVEKKCLAKKYTHLSCDKVFCQPWQRCIEGTCVCKLPYQCPKNGTAVCATNRRSFPTYCQQKSLECLHPGTKFLNNGTCTAEGKFSVSLKHGNTDSEGIVEVKLVDQDKTMFICKSSWSMREANVACLDLGFQQGADTQRRFKLSDLSINSTECLHVHCRGLETSLAECTFTKRRTMGYQDFADVVCYTQKADSPMDDFFQCVNGKYISQMKACDGINDCGDQSDELCCKACQGKGFHCKSGVCIPSQYQCNGEVDCITGEDEVGCAGFASVTQEETEILTADMDAERRRIKSLLPKLSCGVKNRMHIRRKRIVGGKRAQLGDLPWQVAIKDASGITCGGIYIGGCWILTAAHCLRASKTHRYQIWTTVVDWIHPDLKRIVIEYVDRIIFHENYNAGTYQNDIALIEMKKDGNKKDCELPRSIPACVPWSPYLFQPNDTCIVSGWGREKDNERVFSLQWGEVKLISNCSKFYGNRFYEKEMECAGTYDGSIDACKGDSGGPLVCMDANNVTYVWGVVSWGENCGKPEFPGVYTKVANYFDWISYHVGRPFISQYNV
- in vitro C3b breakdown assay (C3b incubated with FI and a fragment of cofactor CR1; time course by gel electrophoresis and GluC/SRM-MS): the formation of C3b fragments iC3b, C3f and C3c, and loss of intact C3b can be clearly detected over time
